The results in this text go back to the supplement of paper PMC9112550, “Optimization of the antimicrobial peptide Bac7 by deep mutational scanning” (BMC Biology, 2022).
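Also: peptides expressed intracellularly from a pBAD plasmid library in pooled LB shake-flask culture, induced with 0.3% L-arabinose, DNA abundance read by NGS, three biological replicates, DESeq2 with apeglm shrinkage.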

The subject of this series is Escherichia coli TOP10. Put plainly: shrunken log2 fold change of peptide-encoding DNA abundance (4.5 h post-induction vs induction); higher = less antimicrobial activity (less host growth inhibition). The conditions noted are these: time post-induction: 4.5 h; library: site-saturation at positions 5, 18, 19, 20.
With RRIRNRPPRLPRPRPRPNPYPRP, the “shrunken log2 fold change” value was -0.151.

RRIRHRPPRLPRPRPRPDSTPRP: the “shrunken log2 fold change” value was 0.12.

For RRIRERPPRLPRPRPRPCHSPRP, the “shrunken log2 fold change” value was -0.0339. For the sequence RRIRKRPPRLPRPRPRPATCPRP, the “shrunken log2 fold change” value came to 0.0272.

Consider RRIRHRPPRLPRPRPRPHMPPRP, for which the “shrunken log2 fold change” value was -0.358. For the sequence RRIRGRPPRLPRPRPRPHFIPRP, the “shrunken log2 fold change” value is -0.139. For RRIRTRPPRLPRPRPRPYPEPRP, the “shrunken log2 fold change” value was -0.817. In the case of RRIRFRPPRLPRPRPRPRRTPRP it was 0.375; in that of RRIRQRPPRLPRPRPRPCELPRP, 0.0039; in that of RRIRWRPPRLPRPRPRPAPVPRP, 0.433.

As for RRIRCRPPRLPRPRPRPKMDPRP, the “shrunken log2 fold change” value was -0.0622. RRIRTRPPRLPRPRPRPHQWPRP: the “shrunken log2 fold change” value is -0.196.

In the case of RRIRERPPRLPRPRPRPGAPPRP, the “shrunken log2 fold change” value is 0.301. With RRIRERPPRLPRPRPRPVWMPRP, the “shrunken log2 fold change” value was -0.0846. In the case of RRIRCRPPRLPRPRPRPTQPPRP, the “shrunken log2 fold change” value is 0.222. In the case of RRIRHRPPRLPRPRPRPTAIPRP it was -0.183; in that of RRIRKRPPRLPRPRPRPPMVPRP, 0.296. For the sequence RRIRNRPPRLPRPRPRPAANPRP, the “shrunken log2 fold change” value came out at 0.487. As for RRIRDRPPRLPRPRPRPILYPRP, the “shrunken log2 fold change” value was -0.131.

Turning to RRIRERPPRLPRPRPRPTCNPRP, the “shrunken log2 fold change” value was -0.315. In the case of RRIRHRPPRLPRPRPRPFKKPRP, the “shrunken log2 fold change” value is -0.00783. In the case of RRIRVRPPRLPRPRPRPQIFPRP it was -0.0538.

With RRIRQRPPRLPRPRPRPCFFPRP, the “shrunken log2 fold change” value was -0.101. In the case of RRIRVRPPRLPRPRPRPYNMPRP, the “shrunken log2 fold change” value was -0.979. In the case of RRIRTRPPRLPRPRPRPCWSPRP it was 0.499. The result for RRIRNRPPRLPRPRPRPFMWPRP reads -0.134; that for RRIRDRPPRLPRPRPRPCFQPRP, -0.0196; that for RRIRVRPPRLPRPRPRPELEPRP, 0.292. The result for RRIRIRPPRLPRPRPRPFSYPRP reads 3.51; that for RRIRTRPPRLPRPRPRPSWHPRP, -0.23. Turning to RRIRLRPPRLPRPRPRPNKVPRP, the “shrunken log2 fold change” value was -0.21. With RRIRCRPPRLPRPRPRPECWPRP, the “shrunken log2 fold change” value stood at 0.669.

Turning to RRIRWRPPRLPRPRPRPYHSPRP, the “shrunken log2 fold change” value is -0.215. The result for RRIRMRPPRLPRPRPRPGLCPRP reads 1.79; that for RRIRRRPPRLPRPRPRPASSPRP, -0.0219; that for RRIRQRPPRLPRPRPRPPMYPRP, -0.269. Regarding RRIRNRPPRLPRPRPRPISVPRP, the “shrunken log2 fold change” value is -0.00409. As for RRIRQRPPRLPRPRPRPTLLPRP, the “shrunken log2 fold change” value was -0.0944. For the sequence RRIRPRPPRLPRPRPRPQFKPRP, the “shrunken log2 fold change” value came out at 0.0824. For the sequence RRIRSRPPRLPRPRPRPNGQPRP, the “shrunken log2 fold change” value came out at 0.0535. The result for RRIRVRPPRLPRPRPRPRPMPRP reads 0.445; that for RRIRERPPRLPRPRPRPDLSPRP, -0.349; that for RRIRIRPPRLPRPRPRPMKKPRP, 0.0138. The result for RRIRKRPPRLPRPRPRPPFVPRP reads 0.209; that for RRIRCRPPRLPRPRPRPWQEPRP, -0.153.

Regarding RRIRCRPPRLPRPRPRPYNPPRP, the “shrunken log2 fold change” value is -1.15. For the sequence RRIRDRPPRLPRPRPRPLTCPRP, the “shrunken log2 fold change” value is 0.254. The result for RRIRCRPPRLPRPRPRPWQFPRP reads -0.0402; that for RRIRSRPPRLPRPRPRPTSFPRP, -0.189. For the sequence RRIRWRPPRLPRPRPRPCTTPRP, the “shrunken log2 fold change” value was -0.183.

With RRIRQRPPRLPRPRPRPHPMPRP, the “shrunken log2 fold change” value is -0.185.

As to RRIRSRPPRLPRPRPRPVPHPRP, the “shrunken log2 fold change” value amounted to 0.0775. In the case of RRIRKRPPRLPRPRPRPDKYPRP it was -0.309; in that of RRIRVRPPRLPRPRPRPFLQPRP, 0.15. Turning to RRIRNRPPRLPRPRPRPNMIPRP, the “shrunken log2 fold change” value was -0.697.

As for RRIRPRPPRLPRPRPRPYEIPRP, the “shrunken log2 fold change” value was -0.0187. On to RRIRSRPPRLPRPRPRPLFHPRP, for which the “shrunken log2 fold change” value is -0.63. The result for RRIRARPPRLPRPRPRPSAAPRP reads 0.848; that for RRIRERPPRLPRPRPRPGSLPRP, -0.431; that for RRIRPRPPRLPRPRPRPRSGPRP, 0.0638. In the case of RRIRTRPPRLPRPRPRPYYEPRP it was -0.0557. The result for RRIRTRPPRLPRPRPRPLAHPRP reads -0.256; that for RRIRQRPPRLPRPRPRPPHYPRP, 0.37. As for RRIRTRPPRLPRPRPRPDNHPRP, the “shrunken log2 fold change” value was -1.07.

As to RRIRERPPRLPRPRPRPKDMPRP, the “shrunken log2 fold change” value stood at 0.00303.

In the case of RRIRDRPPRLPRPRPRPTIPPRP, the “shrunken log2 fold change” value is 0.0494. As for RRIRRRPPRLPRPRPRPIHNPRP, the “shrunken log2 fold change” value is -0.329.

As for RRIRRRPPRLPRPRPRPSWVPRP, the “shrunken log2 fold change” value is -0.223.

As for RRIRGRPPRLPRPRPRPAKFPRP, the “shrunken log2 fold change” value was 0.549. Turning to RRIRVRPPRLPRPRPRPAFNPRP, the “shrunken log2 fold change” value was -0.416. The result for RRIRNRPPRLPRPRPRPPGVPRP reads 0.653. In the case of RRIRQRPPRLPRPRPRPSSIPRP, the “shrunken log2 fold change” value is -0.0146.

Regarding RRIRWRPPRLPRPRPRPPFIPRP, the “shrunken log2 fold change” value is -0.117.

Regarding RRIRPRPPRLPRPRPRPHFGPRP, the “shrunken log2 fold change” value came out at 0.0675. For RRIRNRPPRLPRPRPRPKYIPRP, the “shrunken log2 fold change” value is -0.667. In the case of RRIRVRPPRLPRPRPRPTVIPRP it was -0.127. Regarding RRIRGRPPRLPRPRPRPEVEPRP, the “shrunken log2 fold change” value was found to be 2.03.

Regarding RRIRTRPPRLPRPRPRPVCDPRP, the “shrunken log2 fold change” value worked out at 0.0701. With RRIRRRPPRLPRPRPRPYHTPRP, the “shrunken log2 fold change” value is -1.28. The result for RRIRQRPPRLPRPRPRPEYLPRP reads -0.00804. Turning to RRIRDRPPRLPRPRPRPPAYPRP, the “shrunken log2 fold change” value was -0.0668.

For RRIRERPPRLPRPRPRPNKYPRP, the “shrunken log2 fold change” value is 0.202. As for RRIRNRPPRLPRPRPRPLSDPRP, the “shrunken log2 fold change” value was -0.0613. The result for RRIRIRPPRLPRPRPRPSEIPRP reads 0.0838.

As for RRIRARPPRLPRPRPRPKPWPRP, the “shrunken log2 fold change” value worked out at 0.823. As to RRIRKRPPRLPRPRPRPYWQPRP, the “shrunken log2 fold change” value was -0.0316. Turning to RRIRQRPPRLPRPRPRPMSLPRP, the “shrunken log2 fold change” value was -0.13. For RRIRLRPPRLPRPRPRPESMPRP, the “shrunken log2 fold change” value is 0.191.

As for RRIRRRPPRLPRPRPRPLIIPRP, the “shrunken log2 fold change” value was -0.376. In the case of RRIRVRPPRLPRPRPRPPCVPRP, the “shrunken log2 fold change” value was -0.112.

RRIRDRPPRLPRPRPRPWDVPRP: the “shrunken log2 fold change” value was -0.00145.
